Measurements taken from paper PMC9938351.

How the values were obtained:
[1] = target: SARS-CoV-2 ubiquitin-like domain 1 (Ubl1) of Nsp3 (residues 1–111) (SARS-CoV-2); experiment: dynamic light scattering
[2] = target: SARS-CoV-2 ubiquitin-like domain 1 (Ubl1) of Nsp3 (residues 1–111) (SARS-CoV-2); experiment: cross-linking
[3] = target: SARS-CoV-2 nucleocapsid (N) protein (residues 1–419) (SARS-CoV-2) (UniProt P0DTC9); experiment: ITC

SARS-CoV-2 N protein N-terminal domain (NTD, residues 47–174) (from UniProt P0DTC9 47-174) (domain or fragment)
stoichiometry N [1]: 0.5 NTD per Ubl1

SARS-CoV-2 ubiquitin-like domain 1 (Ubl1) of Nsp3 (residues 1–111) (domain or fragment)
stoichiometry N [2]: 2
Kd [3]: 800 nM
dH [3]: -62.5 kJ/mol
stoichiometry N [3]: 1.19
